Patent US9018171B2, “Uses of an immunomodulatory protein (GMI) from Ganoderma microsporum” (Mycomagic Biotechnology Co., Ltd., priority 2010, dated 2015)
Read-outs that look alike come from different tables or passages of the source.

What was measured:
MDA-MB-231/ATCC = test: NCI60 in vitro screening, Breast Cancer; assay type: cell-based
CAKI-1 = test: NCI60 in vitro screening, Renal Cancer; assay type: cell-based
UO-31 = test: NCI60 in vitro screening, Renal Cancer; assay type: cell-based
T-47D = test: NCI60 in vitro screening, Breast Cancer; assay type: cell-based
CCRF-CEM = test: NCI60 in vitro screening, Leukemia; assay type: cell-based
HOP-62 = assay type: cell-based
MALME-3M = test: NCI60 in vitro screening, Melanoma; assay type: cell-based
A549 cells = test: Actin staining; assay type: cell-based, human
Description: A549 cells (1×10^4 cells/well) were seeded onto 24 wells with coverslip. A549 cells were pretreated with various concentrations of GMI (2, 4, 8 μg/ml) for 1 h before being stimulated with 10 ng/mL EGF for 23 h. A549 cells treated with or without EGF were stained with Texas Red®-X phalloidin and Alexa Fluor 488 DNase I conjugate to detect F-actin (red) and G-actin (green).
Cells were washed twice with PBS and fixed in a 3.7% paraformaldehyde-PBS solution for 10 min at room temperature. After two additional washes with PBS, cells were permeabilized with a solution of 0.1% Triton X-100 in PBS for 3 to 5 min and washed again with PBS. Texas Red-X phalloidin (2 units/mL) and Alexa Fluor 488 DNase I conjugate (9 μg/mL) were used to localize filamentous actin (F-actin) and G-actin. Fluorescent dyes were diluted with blocking solution (1% bovine serum albumin and 0.025% saponin in PBS) and added to coverslips for 60 min at room temperature. After three washes with PBS, coverslips were mounted on a microscope slide with Prolong Gold antifade reagent with DAPI (Life Technologies). F-actin cytoskeleton imaging was performed with a confocal laser scanning microscope (ZEISS LSM510 BETA) at ×400 magnification.

HCC-2998 = test: NCI60 in vitro screening, Colon Cancer; assay type: cell-based
SK-MEL-28 = test: NCI60 in vitro screening, Melanoma; assay type: cell-based
MDA-MB-468 = test: NCI60 in vitro screening, Breast Cancer; assay type: cell-based
KM12 = test: NCI60 in vitro screening, Colon Cancer; assay type: cell-based
SF-295 = test: NCI60 in vitro screening, CNS Cancer; assay type: cell-based
U251 = test: NCI60 in vitro screening, CNS Cancer; assay type: cell-based; settings: U251, one dose
A549/V16 = test: MTT assay, drug sensitivity; assay type: cell-based, human; settings: A549/V16, 48 h, MTT
Description: (§1) A549 cell line and resistant A549 cell sublines (A549/D16, A549/D32 and A549/V16) (5000 cells/well of 96-well plate) were treated with increased doses concentrations (μM) of GMI from Ganoderma microsporum, docetaxel, vincristine and doxorubicin for 48 h, respectively. Cell viability was measured by MTT assay and the results are presented as the calculated cell growth inhibitory ratio. Experiments were repeated three times.

A549/D16 = test: MTT assay, drug sensitivity; assay type: cell-based, human; settings: A549/D16, 48 h, MTT
Description: as §1

A549 = test: MTT assay, drug sensitivity; assay type: cell-based, human; settings: A549, 48 h, MTT
Description: as §1

B1: GMI: immunomodulatory protein from Ganoderma microsporum, amino acid sequence SEQ ID NO: 3, manufactured by Mycomagic Biotechnology Co., Ltd. (protein, listed as Ganoderma microsporum)
chain: MSDTALIFTLAWNVKQLAFDYTPNWGRGRPSSFIDTVTFPTVLTDKAYTYRVVVSGKDLGVRPSYAVESDGSQKINFLEYNSGYGIADTNTIQVYVIDPDTGNNFIVAQWN
TGI (MDA-MB-231/ATCC): 3.65E1 | Percent Growth (MDA-MB-231/ATCC; Log10 Concentration 0.1): 93% | Percent Growth (MDA-MB-231/ATCC; Log10 Concentration 1.1): 41% | Percent Growth (MDA-MB-231/ATCC; Log10 Concentration 2.1): −47% | Percent Growth (MDA-MB-231/ATCC; Log10 Concentration −0.9): 96% | Percent Growth (MDA-MB-231/ATCC; Log10 Concentration −1.9): 103% | GI50 (MDA-MB-231/ATCC; in µg/mL): 8.34E0 | Growth Percent (MDA-MB-231/ATCC; one dose): 23.69% | TGI (CAKI-1; CAKI-1): 7.29E1 | Percent Growth (CAKI-1; CAKI-1, Log10 Concentration 0.1): 98% | Percent Growth (CAKI-1; CAKI-1, Log10 Concentration 1.1): 47% | Percent Growth (CAKI-1; CAKI-1, Log10 Concentration 2.1): −14% | Percent Growth (CAKI-1; CAKI-1, Log10 Concentration −0.9): 100% | Percent Growth (CAKI-1; CAKI-1, Log10 Concentration −1.9): 100% | Growth Percent (CAKI-1; CAKI-1, one dose): 96.04% | GI50 (CAKI-1; CAKI-1, in µg/mL): 1.08E1 | TGI (UO-31; UO-31): 2.65E1 | Percent Growth (UO-31; UO-31, Log10 Concentration 0.1): 119% | Percent Growth (UO-31; UO-31, Log10 Concentration 1.1): 38% | Percent Growth (UO-31; UO-31, Log10 Concentration 2.1): −77% | Percent Growth (UO-31; UO-31, Log10 Concentration −0.9): 102% | Percent Growth (UO-31; UO-31, Log10 Concentration −1.9): 97% | Growth Percent (UO-31; UO-31, one dose): 14.01% | GI50 (UO-31; UO-31, in µg/mL): 8.79E0 | LC50 (UO-31; UO-31, in µg/mL): 7.22E1 | TGI (T-47D): >1.25E2 | Percent Growth (T-47D; Log10 Concentration 0.1): 88% | Percent Growth (T-47D; Log10 Concentration 1.1): 43% | Percent Growth (T-47D; Log10 Concentration 2.1): 13% | Percent Growth (T-47D; Log10 Concentration −0.9): 96% | Percent Growth (T-47D; Log10 Concentration −1.9): 101% | GI50 (T-47D; in µg/mL): 8.63E0 | Growth Percent (T-47D; one dose): 28.25% | TGI (CCRF-CEM): >1.25E2 | Percent Growth (CCRF-CEM; Log10 Concentration 0.1): 97% | Percent Growth (CCRF-CEM; Log10 Concentration 1.1): 58% | Percent Growth (CCRF-CEM; Log10 Concentration 2.1): 18% | Percent Growth (CCRF-CEM; Log10 Concentration −0.9): 101% | Percent Growth (CCRF-CEM; Log10 Concentration −1.9): 104% | GI50 (CCRF-CEM; in µg/mL): 2.02E1 | TGI (HOP-62; HOP-62): 5.99E1 | Percent Growth (HOP-62; HOP-62, Log10 Concentration 0.1): 102% | Percent Growth (HOP-62; HOP-62, Log10 Concentration 1.1): 73% | Percent Growth (HOP-62; HOP-62, Log10 Concentration 2.1): −34% | Percent Growth (HOP-62; HOP-62, Log10 Concentration −0.9): 102% | Percent Growth (HOP-62; HOP-62, Log10 Concentration −1.9): 104% | Growth Percent (HOP-62; HOP-62, one dose): 53.89% | GI50 (HOP-62; HOP-62, in µg/mL): 2.03E1 | TGI (MALME-3M): >1.25E2 | Percent Growth (MALME-3M; Log10 Concentration 0.1): 118% | Percent Growth (MALME-3M; Log10 Concentration 1.1): 114% | Percent Growth (MALME-3M; Log10 Concentration 2.1): 74% | Percent Growth (MALME-3M; Log10 Concentration −0.9): 102% | Percent Growth (MALME-3M; Log10 Concentration −1.9): 100% | Growth Percent (MALME-3M; one dose): 114.17% | elongation and polymerization of F-actin and G-actin (A549 cells; A549 cells treated with EGF or GMI alone): abrogated | filopodia formation (A549 cells; A549 cells, GMI 2, 4, 8 μg/ml, EGF 10 ng/mL): fewer filopodia fibers | focal contact size (A549 cells; A549 cells, GMI alone and combined with EGF): reduced by GMI in a dose-dependent manner | TGI (HCC-2998; HCC-2998): >1.25E2 | Percent Growth (HCC-2998; HCC-2998, Log10 Concentration 0.1): 105% | Percent Growth (HCC-2998; HCC-2998, Log10 Concentration 1.1): 93% | Percent Growth (HCC-2998; HCC-2998, Log10 Concentration 2.1): 88% | Percent Growth (HCC-2998; HCC-2998, Log10 Concentration −0.9): 99% | Percent Growth (HCC-2998; HCC-2998, Log10 Concentration −1.9): 103% | Growth Percent (HCC-2998; HCC-2998, one dose): 132.04% | TGI (SK-MEL-28; SK-MEL-28): >1.25E2 | Percent Growth (SK-MEL-28; SK-MEL-28, Log10 Concentration 0.1): 110% | Percent Growth (SK-MEL-28; SK-MEL-28, Log10 Concentration 1.1): 98% | Percent Growth (SK-MEL-28; SK-MEL-28, Log10 Concentration 2.1): 72% | Percent Growth (SK-MEL-28; SK-MEL-28, Log10 Concentration −0.9): 103% | Percent Growth (SK-MEL-28; SK-MEL-28, Log10 Concentration −1.9): 98% | Growth Percent (SK-MEL-28; SK-MEL-28, one dose): 106.96% | TGI (MDA-MB-468; MDA-MB-468): 1.18E1 | Percent Growth (MDA-MB-468; MDA-MB-468, Log10 Concentration 0.1): 115% | Percent Growth (MDA-MB-468; MDA-MB-468, Log10 Concentration 1.1): −3% | Percent Growth (MDA-MB-468; MDA-MB-468, Log10 Concentration 2.1): −24% | Percent Growth (MDA-MB-468; MDA-MB-468, Log10 Concentration −0.9): 100% | Percent Growth (MDA-MB-468; MDA-MB-468, Log10 Concentration −1.9): 104% | Growth Percent (MDA-MB-468; MDA-MB-468, one dose): 50.90% | GI50 (MDA-MB-468; MDA-MB-468, in µg/mL): 4.45E0 | TGI (KM12; KM12): >1.25E2 | Percent Growth (KM12; KM12, Log10 Concentration 0.1): 104% | Percent Growth (KM12; KM12, Log10 Concentration 1.1): 89% | Percent Growth (KM12; KM12, Log10 Concentration 2.1): 43% | Percent Growth (KM12; KM12, Log10 Concentration −0.9): 96% | Percent Growth (KM12; KM12, Log10 Concentration −1.9): 100% | Growth Percent (KM12; KM12, one dose): 62.96% | GI50 (KM12; KM12, in µg/mL): 8.92E1 | TGI (SF-295; SF-295): >1.25E2 | Percent Growth (SF-295; SF-295, Log10 Concentration 0.1): 101% | Percent Growth (SF-295; SF-295, Log10 Concentration 1.1): 93% | Percent Growth (SF-295; SF-295, Log10 Concentration 2.1): 22% | Percent Growth (SF-295; SF-295, Log10 Concentration −0.9): 100% | Percent Growth (SF-295; SF-295, Log10 Concentration −1.9): 103% | Growth Percent (SF-295; SF-295, one dose): 70.58% | GI50 (SF-295; SF-295, in µg/mL): 5.07E1 | Growth Percent (U251): 69.04% | IC50 ± SD (A549/V16): 13.10 ± 0.17 µg/mL | IC50 ± SD (A549/D16): 11.37 ± 0.55 µg/mL | IC50 ± SD (A549): 15.73 ± 0.42 µg/mL
